pKd: −log10 of the molar value.

The assay addresses recombinant truncated LvAPN1-His (N-terminal region of Litopenaeus vannamei aminopeptidase N1 with the Cry toxin binding region and the active site of the peptidase-M1 domain) (Litopenaeus vannamei). In words: ELISA; 20 ug purified truncated rLvAPN1 coated overnight in 0.1 M carbonate/bicarbonate buffer pH 9.6 at 4 C; blocked with 0.5% BSA in TBS pH 8.0; rPirA^vp, rPirB^vp or rGST at 0-10 uM in TBS incubated at 4 C overnight; detected with rabbit anti-PirA^vp or anti-PirB^vp polyclonal antibody and HRP-conjugated secondary antibody, A450; one-site binding model; apparent Kd. On the technique in general: ELISA stands for enzyme-linked immunosorbent assay.

Regarding “recombinant PirA^vp-His toxin subunit of Vibrio parahaemolyticus (VP_AHPND) (natural protein)”, the pKd (usually the negative decadic logarithm of the Kd, by convention in mol/L) was 5.49.
Next, “recombinant PirB^vp-GST toxin subunit of Vibrio parahaemolyticus (VP_AHPND) (natural protein)”: 6.30.

The record behind these values is publication PMC8041169.
